In patent US20130039936A1 (published 2013):

B1: POTE 252-260 (peptide)
peptide: KLMAKALLL
B2: POTE 553-561 (peptide)
peptide: KILEEIESV
B3: POTE 323-331 (peptide)
peptide: LLLEQNVDV
B4: POTE 272-280 (peptide)
peptide: GLTPLLLGV
B5: POTE 323-3F (peptide)
peptide: LLFEQNVDV
B6: POTE 252-7A (peptide)
peptide: KLMAKAALL
B7: POTE 252-9V (peptide)
peptide: KLMAKALLV
B8: POTE 252-3F (peptide)
peptide: KLFAKALLL
B9: POTE 252-1Y (peptide)
peptide: YLMAKALLL
B10: POTE 252-3A (peptide)
peptide: KLAAKALLL
B11: POTE 553-1Y (peptide)
peptide: YILEEIESV
B12: POTE 553-3F (peptide)
peptide: KIFEEIESV
B13: POTE 553-2L (peptide)
peptide: KLLEEIESV
B14: POTE 553-7A (peptide)
peptide: KILEEIASV
B15: POTE 323-7A (peptide)
peptide: LLLEQNADV
B16: POTE 323-3A (peptide)
peptide: LLAEQNVDV
B17: POTE 323-1Y (peptide)
peptide: YLLEQNVDV

target: T1, HLA-A2 molecule on T2 cells (human); test: T2 binding assay (flow cytometry, BB7.2 anti-HLA-A2 stain of peptide-loaded T2 cells)
T1 construct: also called HLA-A2.1; HLA-A2 molecules
Description: Background fluorescence without BB7.2 was subtracted for each individual value. To compare the different peptides, FI_{0.5} (the peptide concentration that increases HLA-A2.1 expression by 50% over no peptide control background) was calculated from the titration curve for each peptide. […] Each assay was performed in triplicate, and data in this figure are representative of two experiments with similar results.
(§1) Peptide binding capacity to the HLA-A2 molecule was measured by using the T2 cell line according to a protocol described previously (Peters et al., Bioinformatics 19(14):1765-1772, 2003). […] Cells were washed once with cold HBSS containing 0.1% BSA and incubated for 30 minutes at 4° C. with anti-HLA-A2.1 BB7.2 monoclonal antibody (1:40 dilution from hybridoma supernatant). After washing, cells were stained with FITC-labeled goat anti-mouse immunoglobulin (BD, San Jose, Calif.), and the level of HLA expression was measured by flow cytometry. HLA-A2 expression was quantified as fluorescence index (FI) according to the following formula: FI=[(geometric mean fluorescence intensity with peptide-geometric mean fluorescence intensity without peptide)/geometric mean fluorescence intensity without peptide]. Background fluorescence without BB7.2 was subtracted for each individual value. To compare the different peptides, FI_{0.5}, the peptide concentration that increases HLA-A2.1 expression by 50% over no peptide control background, was calculated from the titration curve for each peptide.
The binding affinity of the predicted peptides with HLA-A2 molecules was measured by the T2 binding assay.

FI0.5 | Binder
1.6 µM | B1
5.6 µM | B2
0.8 µM | B3
0.9 µM | B4

target: T1, HLA-A2 molecule on T2 cells; test: T2 binding assay, FI0.5 against wild type POTE 323
Description: as §1

fold better FI0.5 than wild-type POTE 323 | Binder
~3 fold | B5

target: T1, HLA-A2 molecule on T2 cells; test: T2 binding assay (flow cytometry, BB7.2 anti-HLA-A2 stain of peptide-loaded T2 cells); remark: another data set of the same source
Description: as §1, with “peptide. […]” for “peptide.”

FI0.5 | Binder
1.5 µM | B1
4 µM | B6
0.8 µM | B7
1.5 µM | B8
0.9 µM | B9
16.9 µM | B10
2.6 µM | B2
0.024 µM | B11
0.3 µM | B12
0.1 µM | B13
0.2 µM | B14
0.3 µM | B3
2.78 µM | B15
0.4 µM | B16
0.25 µM | B17
0.09 µM | B5

target: T1, HLA-A2 molecule on T2 cells; test: T2 binding assay, FI0.5 against wild type POTE 252
Description: as §1

fold lower FI0.5 than POTE 252 | Binder
~2 fold | B7
~2 fold | B9
